Test results published in article PMC4838890, “Dynamic and flexible H3K9me3 bridging via HP1β dimerization establishes a plastic state of condensed chromatin” (Nature Communications, 2016).

Molecular target: T1, H3K9me3 peptide (Homo sapiens, UniProt P68431)
T1 construct: C-terminally biotinylated histone H3 peptides (aa 1–20)
Assay: SPR, immobilized H3K9me3 peptide
Format: binding
Conditions: 0.1 µM hHP1β WT bound, 950 RU; 1 or 20 μM free H3K9me3, 20 μM H3K9me0 peptide
Protocol: SPR measurements were performed on a Biacore 2000 instrument (GE Healthcare, Buckinghamshire, UK) at 298 K in 10 mM triethanolamine (pH 7.5), 150 mM NaCl, 0.1 mM EDTA, 1 mM DTT, 0.005% (v/v) Tween-20. Biotinylated ligands were immobilized on streptavidin-coated sensor chips SA (GE Healthcare, Buckinghamshire, UK). Before immobilization, sensor chips were conditioned as described by the manufacturer. To obtain low surface densities (5–24 RU), 5 nM biotinylated H3 peptide was injected at a low rate of 10 μl min^−1 using varying contact times. High surface densities (>700 RU) were prepared by injecting […] peptide (10 μl min^−1) until the SA surface was saturated. Peptide-containing chips were regenerated by applying three short pulses of 0.05% (w/v) SDS followed by an injection of 1.5 M NaCl for baseline stabilization. For binding assays, hHP1β proteins were injected at […] (serial twofold dilutions) for 2 min (30 μl/min). Dissociation was recorded for up to 5 min. A streptavidin surface without ligands served as reference. In addition, blank runs were performed for double referencing. Data evaluation was performed by steady-state analysis assuming a Langmuir 1:1 binding model using BIAevaluation 4.1 and Prism 5.04 (GraphPad, CA, USA) software. Binding to the unmodified peptides was analysed with maximum binding (RUmax) set to the corresponding values obtained with the modified peptides.
Figure S8 Hiragami-Hamada et al.
20 30 one site-specific 20 30 one site-specific […]
time [s] concentration [ μM] time [s] concentration [ μM]
40 two site-specific 40 one site-specific […]
time [s] concentration [ μM]
Supplementary Figure 8: hHP1β binds nucleosomes as dimer.
(a) Dynamic light scattering (DLS) analysis of recombinant hHP1β WT (blue) and I161A (red).
(b) SPR response traces of injection of hHP1β WT into Biacore cells containing biotinylated H3K9me3-peptide immobilized on a sensory chip via covalently coated streptavidin. Immobilized peptide was at 24
RU. Injection series are from 0.024 to 50 µM protein concentration.
(c) Blot of signal over concentration of the titration in (b) to deduce an apparent Kd value. Best fitting was achieved by one site-specific binding model.
(d ) Same analysis as in (b) but with hHP1β I161A.
(e) Blot of signal over concentration of the titration in (d) to deduce an apparent Kd value. […]
(also on this page, place not known: dimer . hHP1 β H3K9me3 - se nsory ( b) site -specific ( b) hHP1 β ( d) site -specific hHP1 β modifi ed H3K9me3 -mononucleosomes H3 -tails -30 -50 -8 -4 200 -10 110 -50 -10 -30 [μM] [μM] -10 190 150 -10 110 200 -10 110 μl/min μl/min μl/min -50 150 response [RU] response [RU] response [RU] response [RU] response [RU] [μM] 10 50 response [RU]40 0 0 [μM] 10 30 50 response [RU] 40 0 0 40 [μM] 10 30 50 response [RU] 140 40 0 120 0 40 response [RU] response [RU] response [RU] Kd Kd μM Kd μM 0.8 0.6 0.4 0.2 0 1 1.0 0.8 0.6 0.4 0.2 0.0 mass fraction)

Row | Substance | competition of residual hHP1β WT SPR signal by free H3 peptide
1 | H3K9me3 peptide: free H3K9me3 tail peptide used as competitor [reference compound] | competed specifically
2 | H3K9me0: free unmodified H3 tail peptide used as competitor [reference compound] | competed specifically with free H3K9me3 peptide ligand but not H3K9me0
